Patent publication US20250325682A1, “FKBP52-DERIVED THERAPEUTIC PEPTIDES THAT INHIBIT PATHOLOGICAL TAU AGGREGATION FOR THERAPEUTIC PURPOSES” (priority 2024, published 2025)
Ends that are not written are not given here.

What was measured:
Tau-P301L = target: T1, Tau-P301L (Homo sapiens, UniProt P10636, P618L); experiment: Thioflavine T fluorescence assay of seeded Tau-P301L aggregation; assay type: biochemical; settings: for Tau-P301L aggregate formation (ThT fluorescence intensity): Tau-P301L 5 μM with Tau seeds, peptide 50 μM, fluorescence at 24 h, ±SEM, n=3, remaining aggregation
T1 construct: made in house; host or cells: Escherichia coli BL21
Source text: Protein purification. Recombinant wild-type Tau and Tan with P301L mutation proteins was expressed in Escherichia coli (E. coli, BL21) and purified as described; Goedert M, Jakes R (1990) Expression of separate isoforms of human tau protein: correlation with the tau pattern in brain and effects on tubulin polymerization. EMBO J 9, 4225-4230. Combs B, Tiernan C T, Hamel C, Kanaan N M (2017) Production of recombinant tau oligomers in vitro. Methods Cell Biol 141, 45-64.
Effect of P35 on Tau-P30IL aggregation. Tau-P301L protein is used in all aggregation assays. Tau seeds are prepared during a first polymerization: 15UM of monomeric Tau-P301L was incubated at 37° C. in polymerization buffer (PI-buffer): NaH2PO4 25 mM, Na2HPO4 25 mM, NaCl 25 mM, EDTA SmM PH 6,6 with heparin 7.5 μM, Thioflavine-T 50 μM, and Dithiothreitol (DTT) 0.3 mM in a final volume of 100 μl. Fluorescence was monitored every 30 minutes during 25 hours at 480 nm (excitation at 450 nm) using Perkin-Elmer Endvision spectrophotometer. After polymerization, samples (100 μl) were centrifuged at 20,000 g for 1 hour at 4° C. The pellets were resuspended in 100 μl of PI-buffer and sonicated (Branson sonicator) at 40%, 3 times of 1 second, in order to obtain small pre-formed Tau fibrils used as seeds for the second polymerization assay. A volume of 18% of Tau seeds was pre-incubated in the same buffer of the first polymerization, with or without polypeptides, during 1 h at 37° C. Subsequently, 5 μM of monomeric Tau-P301L was added and fluorescence was monitored in the same conditions.

[1] = tested on: hTau-P301S mouse DRG neurons; experiment: Western blot of sarkosyl-insoluble Tau fraction of peptide-treated DRG neurons; assay type: cell-based; settings: peptide 200 nM in cell medium for 15 days, compared to scramble control
Protocol: DRG culture and western-blot analyses. DRG neurons were collected from hTau-P301S mice spinal cords as described by Sleigh and dissociated with collagenase (ThermoFisher Scientific, 17100-017) 2900 U/mL during 90 min followed by 0.1% trypsin (Life Technologies, 15090-046) 3 mM EDTA containing DNaseI (50 μg/mL; Sigma-Aldrich, 04536282001) for 5 min; Sleigh J N, Weir G A, Schiavo G, A simple, step-by-step dissection protocol for the rapid isolation of mouse dorsal root ganglia. BMC RES NOTES, 2016, 9, 82.
Cell treatment was stopped using 1×PBS (VWR, X0515-500) supplemented with 2% horse serum (ThermoFisher Scientific, 16050-122), and DRG neurons were dissociated with a Pasteur pipette. Cells were then centrifuged for 5 min at 1,300 g and the pellet was resuspended in DMEM (Fisher Scientific, 12077549) with 9% fetal bovine serum. After filtration on a 0.40 μm filter followed by centrifugation 5 min at 1,300 g. the pellet was resuspended in neurobasal medium complemented with B27 (50×), L-glutamine (100×) (Life Technologies, 11530536 and 25030024 respectively), NGF 2.5 S (27 ng/ml; ThermoFisher, 13257-019) and distributed in 2 wells of a 6-well culture plate. Cell cultures were maintained for 15 days in vitro (DIV) and the cell medium complemented with mitomycine C (Sigma-Aldrich, M4287) and 5-Fluorodeoxy-uridine (Sigma-Aldrich, F0503) was changed twice a week. Cells were harvested by scraping, centrifuged for 10 min at 200 g and the pellet was homogenized using PotterElvehjem 18 in cold extraction buffer (50 mM Tris-HCl, pH 7.5, 100 mM NaCl, 0.5% SDS, 2 mM CaCl2, 2 mM MgCl2) supplemented with a cocktail of protease and phosphatase inhibitors (Roche, 11836145001). […] Each sample was analyzed on a 10% SDS Page gel and transferred onto iBlot™ Gel Transfer membranes (Invitrogen, IB23001, IB24002). […] Images were recorded with the GeneGnome5 (Syngene). Quantification was performed using Genetools analysis software (Syngene).
DRGs treatment with peptides. […] After cell lysis, lysates were then analyzed by western-blot as described in “DRG culture and western-blot analyses”.

T1 sequence (P10636 1-441 isoform P10636-8 P301L): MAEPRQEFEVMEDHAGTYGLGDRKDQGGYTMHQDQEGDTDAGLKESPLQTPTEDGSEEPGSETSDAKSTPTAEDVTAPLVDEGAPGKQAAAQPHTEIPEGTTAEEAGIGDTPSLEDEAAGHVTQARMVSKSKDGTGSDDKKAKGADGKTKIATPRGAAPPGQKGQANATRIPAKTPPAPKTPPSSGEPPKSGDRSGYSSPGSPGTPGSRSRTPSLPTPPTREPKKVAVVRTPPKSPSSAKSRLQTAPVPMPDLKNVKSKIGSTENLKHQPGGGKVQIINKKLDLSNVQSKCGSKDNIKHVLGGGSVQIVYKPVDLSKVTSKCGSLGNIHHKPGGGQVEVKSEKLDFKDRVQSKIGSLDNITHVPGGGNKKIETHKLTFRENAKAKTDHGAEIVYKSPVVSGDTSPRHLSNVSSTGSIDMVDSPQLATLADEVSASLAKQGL

For “AKPNEGAIVEVALEGYYKDKLFDQRELRFEIGEGE (Ac-AKPNEGAIVEVALEGYYKDKLFDQRELRFEIGEGE; not fully specified (C-terminus); listed as Homo sapiens) [P35]”, the “Tau-P301L aggregate formation (ThT fluorescence intensity)” value (Tau-P301L) was 80.6%.

“AKPNEGAIVEVALEGYYKDKLFDQRELRFEIGEGENLDLPYGLERAIQRM (listed as Homo sapiens) [P50]” was tested, and the “effect on Tau-P301L aggregation in vitro (in words)” value (Tau-P301L; in vitro incubation of Tau-P301L with peptide, data not shown) was “comparable effects than P35”.

With “IRFKVLEGLYGEVDEAKEGNEAKAEGLQEYPDFIR [P35sc, reference compound]” the “Tau-P301L aggregate formation (ThT fluorescence intensity)” value (Tau-P301L) was 91.4%.

For “YARAAARQARA-P35 (YARAAARQARAAKPNEGAIVEVALEGYYKDKLFDQRELRFEIGEGE) [YARA-P35]”, the “insoluble Tau forms / Tau-P301S aggregation (western blot, sarkosyl-insoluble fraction)” value [1] was “tends to show a decrease of Tau-P301S aggregation”.

B1: YARAAARQARA-P50 (peptide)
chain: YARAAARQARAAKPNEGAIVEVALEGYYKDKLFDQRELRFEIGEGENLDLPYGLERAIQRM
For B1, the “insoluble Tau forms / Tau-P301S aggregation (western blot, sarkosyl-insoluble fraction)” value [1] was “decrease of insoluble Tau forms” and the “insoluble Tau forms / Tau-P301S aggregation (western blot, sarkosyl-insoluble fraction)” value ([1]; listed as YARA-PSO) was “tends to show a decrease of Tau-P301S aggregation”.
